# Patent US20140294898A1 (published 2014)
# Positions of bridges follow the written chain, without caps; N, C: chain ends. Non-standard residues stand in square brackets, D forms with d. Primed or numbered codes have the meaning given here. NMeF = CN[C@@H](Cc1ccccc1)C(=O)O; PEG12′ = C-terminal PEG12 spacer; NMeNle = CCCC[C@H](NC)C(=O)O; NMeA = CN[C@@H](C)C(=O)O; Sar = CNCC(=O)O
# B1: Compound No. 71 (peptide)
# peptide: FFXGDVFYGWYLCG
# HELM: PEPTIDE1{[O=C(C[*:3])[*:2]].F.[meF].[CCCC[C@@H](C(=O)[*:2])N(C)[*:1]].[Sar].D.V.[meF].Y.[Sar].W.Y.L.C.G.[am]}$PEPTIDE1,PEPTIDE1,1:R3-14:R3$$$V2.0
# SMILES: CCCC[C@H]1C(=O)N(C)CC(=O)N[C@@H](CC(=O)O)C(=O)N[C@@H](C(C)C)C(=O)N(C)[C@@H](Cc2ccccc2)C(=O)N[C@@H](Cc2ccc(O)cc2)C(=O)N(C)CC(=O)N[C@@H](Cc2c[nH]c3ccccc23)C(=O)N[C@@H](Cc2ccc(O)cc2)C(=O)N[C@@H](CC(C)C)C(=O)N[C@H](C(=O)NCC(N)=O)CSCC(=O)N[C@@H](Cc2ccccc2)C(=O)N(C)[C@@H](Cc2ccccc2)C(=O)N1C
# notes: Macrocyclic peptide; X stands for norleucine
# B2: Compound No. 3 (peptide)
# peptide: {CH2CO}-F[NMeA]NPHRSWRW[NMeNle][NMeNle]LCG-NH2
# modifications: thioether N-14
# SMILES: CCCC[C@H]1C(=O)N(C)[C@@H](CCCC)C(=O)N[C@@H](CC(C)C)C(=O)N[C@H](C(=O)NCC(N)=O)CSCC(=O)N[C@@H](Cc2ccccc2)C(=O)N(C)[C@@H](C)C(=O)N[C@@H](CC(N)=O)C(=O)N2CCC[C@H]2C(=O)N[C@@H](Cc2c[nH]cn2)C(=O)N[C@@H](CCCNC(=N)N)C(=O)N[C@@H](CO)C(=O)N[C@@H](Cc2c[nH]c3ccccc23)C(=O)N[C@@H](CCCNC(=N)N)C(=O)N[C@@H](Cc2c[nH]c3ccccc23)C(=O)N1C
# notes: as for B1
# B3: Compound No. 4 (peptide)
# peptide: {CH2CO}-F[NMeA]NPLRSWRW[NMeNle][NMeNle]LCG-NH2
# modifications: thioether N-14
# SMILES: CCCC[C@H]1C(=O)N(C)[C@@H](CCCC)C(=O)N[C@@H](CC(C)C)C(=O)N[C@H](C(=O)NCC(N)=O)CSCC(=O)N[C@@H](Cc2ccccc2)C(=O)N(C)[C@@H](C)C(=O)N[C@@H](CC(N)=O)C(=O)N2CCC[C@H]2C(=O)N[C@@H](CC(C)C)C(=O)N[C@@H](CCCNC(=N)N)C(=O)N[C@@H](CO)C(=O)N[C@@H](Cc2c[nH]c3ccccc23)C(=O)N[C@@H](CCCNC(=N)N)C(=O)N[C@@H](Cc2c[nH]c3ccccc23)C(=O)N1C
# notes: as for B1
# B4: Compound No. 75 (peptide)
# peptide: FFAGDVFYGWYLCG
# HELM: PEPTIDE1{[O=C(C[*:3])[*:2]].F.[meF].[meA].[Sar].D.V.[meF].Y.[Sar].W.Y.L.C.G.[am]}$PEPTIDE1,PEPTIDE1,1:R3-14:R3$$$V2.0
# SMILES: CC(C)C[C@@H]1NC(=O)[C@H](Cc2ccc(O)cc2)NC(=O)[C@H](Cc2c[nH]c3ccccc23)NC(=O)CN(C)C(=O)[C@H](Cc2ccc(O)cc2)NC(=O)[C@H](Cc2ccccc2)N(C)C(=O)[C@H](C(C)C)NC(=O)[C@H](CC(=O)O)NC(=O)CN(C)C(=O)[C@H](C)N(C)C(=O)[C@H](Cc2ccccc2)N(C)C(=O)[C@H](Cc2ccccc2)NC(=O)CSC[C@@H](C(=O)NCC(N)=O)NC1=O
# notes: Variant of Compound No. 71: mNle3 to mAla
# B5: Compound No. 82 (peptide)
# peptide: FFXGDVFYGWYLCG
# HELM: PEPTIDE1{[O=C(C[*:3])[*:2]].F.[meF].[CCCC[C@@H](C(=O)[*:2])N(C)[*:1]].[Sar].D.V.F.Y.[Sar].W.Y.L.C.G.[am]}$PEPTIDE1,PEPTIDE1,1:R3-14:R3$$$V2.0
# SMILES: CCCC[C@H]1C(=O)N(C)CC(=O)N[C@@H](CC(=O)O)C(=O)N[C@@H](C(C)C)C(=O)N[C@@H](Cc2ccccc2)C(=O)N[C@@H](Cc2ccc(O)cc2)C(=O)N(C)CC(=O)N[C@@H](Cc2c[nH]c3ccccc23)C(=O)N[C@@H](Cc2ccc(O)cc2)C(=O)N[C@@H](CC(C)C)C(=O)N[C@H](C(=O)NCC(N)=O)CSCC(=O)N[C@@H](Cc2ccccc2)C(=O)N(C)[C@@H](Cc2ccccc2)C(=O)N1C
# notes: Variant of Compound No. 71: mPhe7 to Phe (N-methyl removed)
# B6: Compound No. 80 (peptide)
# peptide: FFXGDAFYGWYLCG
# HELM: PEPTIDE1{[O=C(C[*:3])[*:2]].F.[meF].[CCCC[C@@H](C(=O)[*:2])N(C)[*:1]].[Sar].D.A.[meF].Y.[Sar].W.Y.L.C.G.[am]}$PEPTIDE1,PEPTIDE1,1:R3-14:R3$$$V2.0
# SMILES: CCCC[C@H]1C(=O)N(C)CC(=O)N[C@@H](CC(=O)O)C(=O)N[C@@H](C)C(=O)N(C)[C@@H](Cc2ccccc2)C(=O)N[C@@H](Cc2ccc(O)cc2)C(=O)N(C)CC(=O)N[C@@H](Cc2c[nH]c3ccccc23)C(=O)N[C@@H](Cc2ccc(O)cc2)C(=O)N[C@@H](CC(C)C)C(=O)N[C@H](C(=O)NCC(N)=O)CSCC(=O)N[C@@H](Cc2ccccc2)C(=O)N(C)[C@@H](Cc2ccccc2)C(=O)N1C
# notes: Variant of Compound No. 71: Val6 to Ala
# B7: Compound No. 83 (peptide)
# peptide: FFXGDVFAGWYLCG
# HELM: PEPTIDE1{[O=C(C[*:3])[*:2]].F.[meF].[CCCC[C@@H](C(=O)[*:2])N(C)[*:1]].[Sar].D.V.[meF].A.[Sar].W.Y.L.C.G.[am]}$PEPTIDE1,PEPTIDE1,1:R3-14:R3$$$V2.0
# SMILES: CCCC[C@H]1C(=O)N(C)CC(=O)N[C@@H](CC(=O)O)C(=O)N[C@@H](C(C)C)C(=O)N(C)[C@@H](Cc2ccccc2)C(=O)N[C@@H](C)C(=O)N(C)CC(=O)N[C@@H](Cc2c[nH]c3ccccc23)C(=O)N[C@@H](Cc2ccc(O)cc2)C(=O)N[C@@H](CC(C)C)C(=O)N[C@H](C(=O)NCC(N)=O)CSCC(=O)N[C@@H](Cc2ccccc2)C(=O)N(C)[C@@H](Cc2ccccc2)C(=O)N1C
# notes: Variant of Compound No. 71: Tyr8 to Ala
# B8: Compound No. 71 (peptide)
# peptide: FFXGDVFYGWYLCG
# HELM: PEPTIDE1{[O=C(C[*:3])[*:2]].F.[meF].[CCCC[C@@H](C(=O)[*:2])N(C)[*:1]].[Sar].D.V.[meF].Y.[Sar].W.Y.L.C.G.[am]}$PEPTIDE1,PEPTIDE1,1:R3-14:R3$$$V2.0
# SMILES: CCCC[C@H]1C(=O)N(C)CC(=O)N[C@@H](CC(=O)O)C(=O)N[C@@H](C(C)C)C(=O)N(C)[C@@H](Cc2ccccc2)C(=O)N[C@@H](Cc2ccc(O)cc2)C(=O)N(C)CC(=O)N[C@@H](Cc2c[nH]c3ccccc23)C(=O)N[C@@H](Cc2ccc(O)cc2)C(=O)N[C@@H](CC(C)C)C(=O)N[C@H](C(=O)NCC(N)=O)CSCC(=O)N[C@@H](Cc2ccccc2)C(=O)N(C)[C@@H](Cc2ccccc2)C(=O)N1C
# notes: also called Compound 71
# B9: Compound No. 4 (peptide)
# peptide: {CH2CO}-F[NMeA]NPLRSWRW[NMeNle][NMeNle]LCG-NH2
# modifications: thioether N-14
# SMILES: CCCC[C@H]1C(=O)N(C)[C@@H](CCCC)C(=O)N[C@@H](CC(C)C)C(=O)N[C@H](C(=O)NCC(N)=O)CSCC(=O)N[C@@H](Cc2ccccc2)C(=O)N(C)[C@@H](C)C(=O)N[C@@H](CC(N)=O)C(=O)N2CCC[C@H]2C(=O)N[C@@H](CC(C)C)C(=O)N[C@@H](CCCNC(=N)N)C(=O)N[C@@H](CO)C(=O)N[C@@H](Cc2c[nH]c3ccccc23)C(=O)N[C@@H](CCCNC(=N)N)C(=O)N[C@@H](Cc2c[nH]c3ccccc23)C(=O)N1C
# notes: also called Compound 4
# B10: Compound No. 2 (peptide)
# peptide: {CH2CO}-F[NMeA]NPHHSWRW[NMeNle][NMeNle]LCG-NH2
# modifications: thioether N-14
# SMILES: CCCC[C@H]1C(=O)N(C)[C@@H](CCCC)C(=O)N[C@@H](CC(C)C)C(=O)N[C@H](C(=O)NCC(N)=O)CSCC(=O)N[C@@H](Cc2ccccc2)C(=O)N(C)[C@@H](C)C(=O)N[C@@H](CC(N)=O)C(=O)N2CCC[C@H]2C(=O)N[C@@H](Cc2c[nH]cn2)C(=O)N[C@@H](Cc2c[nH]cn2)C(=O)N[C@@H](CO)C(=O)N[C@@H](Cc2c[nH]c3ccccc23)C(=O)N[C@@H](CCCNC(=N)N)C(=O)N[C@@H](Cc2c[nH]c3ccccc23)C(=O)N1C
# notes: also called Compound 2
# Target: T1, hPDL1(19-239)-TVMV-His (human, UniProt Q9NZQ7 19-239)
# T1 construct: The construct name says 19-239, the running text says amino acids 18-239; Expressed in HEK293T cells; also called PD-L1-His; PD-L1-TVMV-His
# Assay: HTRF competition, PD-1-Ig (20 nM) binding to human PD-L1-His (10 nM)
# T1 sequence (Q9NZQ7 other isoform, or with tags, fused parts or gaps limits assumed): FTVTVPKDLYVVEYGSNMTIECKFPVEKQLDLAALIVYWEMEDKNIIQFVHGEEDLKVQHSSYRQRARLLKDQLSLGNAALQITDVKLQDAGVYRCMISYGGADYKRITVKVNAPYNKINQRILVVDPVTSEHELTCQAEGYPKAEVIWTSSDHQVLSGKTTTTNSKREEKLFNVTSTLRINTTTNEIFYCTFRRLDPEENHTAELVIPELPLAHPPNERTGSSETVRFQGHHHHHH
row,IC50 [nM],Binder
1,21,{CH2CO}-F[NMeA]NPHL[Sar]WSW[NMeNle][NMeNle]RCG-{PEG12′-NH2} (thioether N-14) [Compound No. 116]
2,21,{CH2CO}-F[NMeA]NPHHSWRW[NMeNle][NMeNle]LCG-{PEG12′-NH2} (thioether N-14) [Compound No. 117]
3,3,{CH2CO}-F[NMeF][NMeNle][Sar]DV[NMeF]Y[Sar]WYLCG-{PEG12′-NH2} (thioether N-13) [Compound No. 118]

# Target: T2, hPDL1(19-239)-TVMV-His (human, UniProt Q9NZQ7 19-239)
# T2 construct: The text says amino acids 18-239, the construct name says 19-239; also called PD-L1-His; PD-L1-TVMV-His
# Assay: HTRF competition, inhibitor titrated against PD-1-Ig binding to PD-L1-His
# Method: All binding studies were performed in an HTRF assay buffer consisting of dPBS supplemented with 0.1% (w/v) bovine serum albumin and 0.05% (v/v) Tween-20. […] PD-L1 fusion proteins from either human, cynomologous macaques, or mouse were used. HTRF detection was achieved using europium crypate-labeled anti-Ig monoclonal antibody (1 nM final) and allophycocyanin (APC) labeled anti-His monoclonal antibody (20 nM final). Antibodies were diluted in HTRF detection buffer and 5 μl was dispensed on top of binding reaction. The reaction was allowed to equilibrate for 30 minutes and signal (665 nm/620 nm ratio) was obtained using an EnVision fluorometer. […]
# T2 sequence (Q9NZQ7 other isoform, or with tags, fused parts or gaps limits assumed): as above
row,IC50 [nM],Binder
1,7,B1
2,13,B2
3,15,B3

# Target: T3, human PD-L1 (human, UniProt Q9NZQ7 19-239, limits assumed)
# T3 construct: also called Hu PD-L1; hPD-L1
# Assay: cell binding assay, inhibition of human PD-L1/PD-1 binding (cell format not given)
# T3 sequence (Q9NZQ7 19-239 limits assumed): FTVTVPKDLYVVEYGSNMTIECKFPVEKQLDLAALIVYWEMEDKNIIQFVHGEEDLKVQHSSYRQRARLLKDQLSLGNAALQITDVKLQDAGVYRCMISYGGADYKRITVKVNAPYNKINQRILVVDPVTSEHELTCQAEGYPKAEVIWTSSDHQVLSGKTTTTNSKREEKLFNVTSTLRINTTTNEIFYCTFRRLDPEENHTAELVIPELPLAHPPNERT
row,IC50 [nM],Binder
1,438,B4
2,203,B5
3,723,B6
4,75,B7

# Target: T4, human PD-L1 (human, UniProt Q9NZQ7 19-239, limits assumed)
# T4 construct: also called Hu PD-L1; hPD-L1
# Assay: cell binding assay, inhibition of human PD-L1/PD-1 binding on cells (cell format not given)
# T4 sequence (Q9NZQ7 19-239 limits assumed): as above
row,IC50 [nM],Binder
1,10,B8
2,1400,"{CH2CO}-FLIVIRDRVFRCG-NH2 (thioether N-12, also called Compound 99) [Compound No. 99]"
3,15,B9
4,43,B10
